Columns and labels:
[1] = system: Pancreatin from porcine pancreas; assay: In vitro digestion of lunasin with pancreatin, with or without protease inhibitors; assay type: in vitro ADME; details: inhibitor 18,000 ng, lunasin 600 ng, pancreatin 600 ng, 1 h at 37°C; also after heat denaturation of the inhibitor
Method: Figure 2 Soy-derived BBI and KTI protect synthetic lunasin from in vitro digestion. The upper, lighter bands are Coomassie Blue protein stains and the lower, darker bands are Western blots. (M) Markers, (1) Lunasin (600 ng) + pancreatin (600 ng) incubated for 0 h at 37°C, (2) Lunasin (600 ng) + pancreatin (600 ng) incubated for 1 h at 37°C, (3) Lunasin (600 ng) + BBI (18,000 ng, unboiled) + pancreatin (600 ng) incubated for 1 h at 37°C, (4). Lunasin (600 ng) + KTI (18,000 ng, unboiled) + pancreatin (600 ng) incubated for 1 h at 37°C, (5) Lunasin (600 ng) + BBI (18,000 ng, boiled) + pancreatin (600 ng) incubated for 1 h at 37°C, (6) Lunasin (600 ng)+KTI (18,000 ng, boiled) + pancreatin (600 ng) incubated for 1 h at 37°C, (7) BBI (unboiled), (8) KTI (unboiled).
In vitro digestion of lunasin was carried out following the method published in the United States Pharmacopeia. Synthetic lunasin (American Peptide Company, Inc. Sunnyvale, CA, USA) (5 µg) was incubated with the protease inhibitors BBI or KTI (Sigma, St. Louis, MO, USA) for 30 min at 25°C. Pancreatin from porcine pancreas (Sigma) was added (enzyme∶protein ratio of 1∶10) and solution was incubated at 37°C for 1 h. Tris-tricine sample buffer was added at the end of the reaction and immediately stopped by placing the tubes in a boiling water bath for 5 min. The digests were analyzed by SDS-PAGE and Western-Blot following the protocol previously described.

[2] = system: MDA-MB-231 tumor xenografts; assay: Breast cancer prevention in MDA-MB-231 xenograft mouse model; assay type: in vivo, athymic NCr-nu/nu mice
Method: Human MDA-MB-231 breast cancer cells were obtained from ATCC and grown in Leibovitz's L-15 Medium supplemented with 10% FBS, 100 unit/ml penicillin, and 100 µg/ml streptomycin (Invitrogen), in a humidified atmosphere at 37°C.
Mice protocol was approved by ACUC (University of California, Berkeley, CA, USA). Thirty-two six weeks-old athymic NCr-nu/nu mice (National Cancer Institute, Frederick, MD, USA) were acclimatized for 1 week and randomly divided into four groups (n = 8): control group (receiving PBS), BBI-group (receiving BBI at 20 mg/kg body weight), and two lunasin-groups (receiving synthetic lunasin [Chengdu KaiJie Bio-Pharmaceutical Co., Chengdu, P.R. China] at 20 mg/kg body weight and 4 mg/kg body weight). After two months of i.p. treatment three times a week, mice were injected subcutaneously in the right flank with 1×10^7 MDA-MB-231 cells suspended in 0.1 ml of Matrigel Basement Membrane Matrix (Becton Dickinson, Bedford, MA, USA). Tumor growth was monitored by palpation, and the onset when tumors were detectable was noted. Tumor size was measured with calipers, and tumor volume was calculated assuming the shape as ellipsoid. Tumor incidence in percentage was calculated as the number of tumor-bearing mice divided by the total number of mice in each group, whereas tumor generation was calculated as the total number of tumors divided by total number of mice in each group. The volume of the tumor was determined using the following formula: tumor volume = length × width^2 ×0.523 [41].
At the end of the experiment, animals were sacrificed, and tumors were dissected and weighed. Individual tumors were split for fixation in the Shando Glyo-Fixx™ (Thermo Scientific, Pittsburgh, PA, USA) for histological examination. The paraffin-embedded sections were stained with hematoxylin and eosin (H&E).

[3] = system: Ki-67 expression in MDA-MB-231 tumors; assay: Immunohistochemical staining of xenograft tumor sections for Ki-67 labeling index; assay type: in vivo, athymic NCr-nu/nu mice; details: 20 mg/kg body weight i.p.; tumors collected 7 weeks after cells injection
Method: Sections were evaluated for tumor cell cytology, growth pattern, necrosis and apoptosis. The 5 µm sections were deparaffinized and rehydrated and antigens were retrieved using citrate buffer (pH 6.0) before endogenous peroxidase activity was blocked. Proliferation was shown using an antibody against Ki-67 (MIB-1; DakoCytomation, Glostrup, Denmark, dilution 1∶75). Antigen expression was expressed using streptavidin conjugated to horseradish peroxidase and visualized by diaminobenzidine chromogen reagent (DakoCytomation). All immunohistochemistry slides were examined by light microscopy (Axiophot 381, Zeiss, Germany). Ki-67 labeling index was calculated as percentage of positive cells over total number of cells counted in microscope at 400× magnification.

MDA-MB-231 tumors = assay: In situ TUNEL assay for apoptosis in xenograft tumor sections; assay type: in vivo, athymic NCr-nu/nu mice; details: lunasin 20 and 4 mg/kg (P = 0.0088, 0.0141 vs control), BBI 20 mg/kg i.p.
Method: In situ terminal deoxynucleotidyl transferase-mediated dUTP nick end labeling (TUNEL) assay was performed using ApopTag Detection Kit (Millipore, USA & Canada) and ran based on the manufacturer's protocol. Briefly, deparaffinized and rehydrated sections were pretreated with 20 µg/mL proteinase K for 15 min and incubated with terminal transferase and digoxigenin dUTP at 37°C for 1 h. After washing, sections were incubated with antidigoxigenin rhodamine (Millipore) and DAPI (Invitrogen), and slides were visualized by fluorescent microscopy (Axiophot 381). The apoptotic cells were calculated as percentage of positive cells over total number of cells counted in microscope at 400× magnification.

[4] = system: DMBA-induced NIH3T3 cells; assay: Foci formation assay in DMBA-induced NIH3T3 cells; assay type: cell-based; details: 100 nM peptide; 1.5 µg/ml DMBA; 6 weeks; n = 6
Method: The foci formation assay was performed according to Reznikoff et al. NIH3T3 cells were obtained from American Type Culture Collection (ATCC) and cultured in RPMI 1640 medium supplemented with 10% fetal bovine serum (FBS) (Invitrogen, Carlsbad, CA, USA). Cells were plated at a density of 500 cells/well in 12-well plates, incubated overnight at 37°C and treated with lunasin or BBI for 4 hrs. Then, cells were treated with 1.5 µg/ml DMBA for 20 hrs. After washing with PBS, fresh medium was added. Peptides were added and medium was changed every week for 6 weeks. At the end of experiment, cells were washed with 0.9% NaCl, fixed with methanol, stained with Giemsa, and scored for transformed foci. The negative control was a set of cells receiving no DMBA, while the positive control consisted of cells induced by DMBA but without treatment.

B1: KTI: soy Kunitz Trypsin Inhibitor, a protease inhibitor contained in soybean (protein, UniProt P01070 25-205, looked up)
Trypsin inhibitor A: DFVLDNEGNPLENGGTYYILSDITAFGGIRAAPTGNERCPLTVVQSRNELDKGIGTIISSPYRIRFIAEGHPLSLKFDSFAVIMLCVGIPTEWSVVEDLPEGPAVKIGENKDAMDGWFRLERVSDDEFNNYKLVFCPQQAEDDKCGDIGISIDHDDGTRRLVVSKNKPLVVQFQKLDKESL
protection of lunasin from in vitro digestion with pancreatin [1]: protect lunasin from digestion

B2: BBI: polypeptide of 71 amino acids with the ability to inhibit the serine proteases trypsin and chymotrypsin (protein, UniProt P01055 40-110, looked up)
Bowman-Birk type proteinase …: DDESSKPCCDQCACTKSNPPQCRCSDMRLNSCHSACKSCICALSYPAQCFCVDITDFCYEPCKPSEDDKEN
tumor incidence (mice showing tumors) ([2]; 20 mg/kg body weight i.p. three times a week, seven weeks post-cells injection, n = 8): 88% | tumor incidence lower compared with the control ([2]; 20 mg/kg body weight i.p., seven weeks post-cells injection): no effect | tumor generation ([2]; 20 mg/kg body weight i.p., versus vehicle-treated group): ineffective | body weight ([2]; i.p. three times a week, BBI 20 mg/kg, lunasin 20 and 4 mg/kg body weight, compared among the four groups, n = 8): No significant differences | protection of lunasin from in vitro digestion with pancreatin [1]: protect lunasin from digestion | reduction of Ki-67 expression compared with the control group [3]: no significant difference | TUNEL-positive apoptotic cells in tumors (MDA-MB-231 tumors): Few TUNEL-positive cells | reduction of foci formation [4]: 60%

From paper PMC2811193, “Complementary Roles in Cancer Prevention: Protease Inhibitor Makes the Cancer Preventive Peptide Lunasin Bioavailable” (PLoS ONE, 2010)
